Measured values: patent publication US20200277355A1

Tests used:
[1] = target: TNFR2; test: MST competition, fluorescently labelled TNFR2, TNF-α titrated in the presence of 100 µM SN10
[2] = target: TNFR2; test: MST, fluorescently labelled TNFR2, TNF-α titrated, without SN10
[3] = target: TNFR1; test: MST, fluorescently labelled TNFR1, TNF-α titrated, without SN10
[4] = target: TNF-α; test: MST, fluorescently labelled TNF-α, TNFR1 titrated, without SN10

Substance	KD in the presence of 100µM SN10 [1] [µM]	Kd [2] [µM]	Kd [3] [µM]	Kd [4] [µM]
TNF-α (ligand)	0.384	0.328	0.116	
TNFR1 (receptor)				0.00284
